From the supplement of paper PMC9732359
± gives the uncertainty stated by the source.

Experiment: protein stability index of a GFP-peptide fusion (yeast GPS) (PSI 1-4); higher = more stable; sorted into four equal gates, so the index is relative within each strain
Summary of the method: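 Plasmids in a pooled yeast library fused tiled 17-residue yeast protein peptides downstream of GFP and also expressed Cherry. Mid-log cultures grown without leucine were sorted into four equal gates by GFP/Cherry fluorescence ratio. Each gate's plasmids were PCR-amplified and Illumina-sequenced, and reads were matched to strains by barcodes. The protein stability index is derived by multiplying each gate's read frequency by its gate number and summing the results.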

Sequence	protein stability index (doa10∆)	protein stability index (pdr5∆)	protein stability index (san1∆)	protein stability index (ubr1∆)
PQEPKHIQEEEEQDVDM [RPC19]	3.41 ± 0.09	3.36 ± 0.09	3.12 ± 0.05	3.28 ± 0.056
IREGQNQKIPDNVIVIN [SIR3]	2.9 ± 0.049	3.12 ± 0.065	2.98 ± 0.057	3 ± 0.046
VSFNGFKLPKKFPPPTP [BRR2]	2.57 ± 0.07	2.9 ± 0.067	2.8 ± 0.06	2.93 ± 0.052
TVFLPMVGLVDPDKLKP [RPT5]	2.77 ± 0.061	2.66 ± 0.079	2.47 ± 0.058	2.44 ± 0.062
KLSKILRTEYGWDSLAS [SNU114]	3.17 ± 0.14	3.17 ± 0.2	3.1 ± 0.21	3.3 ± 0.17
LGNEKNQASTSKRVYKI [CDC53]		2.83 ± 0.12	2.92 ± 0.096	
AHNKPSLFSKIKTFFTQ [YAR002W/NUP60]	2.37 ± 0.079	2.85 ± 0.076	2.66 ± 0.064	2.73 ± 0.065
NVQTQYREAPVIYRGPE [RET1]	2.53 ± 0.095	2.97 ± 0.069	3.36 ± 0.042	3.14 ± 0.051
EGLIRLDNLTEDPNSAA [DIS3]	3.23 ± 0.066	3.31 ± 0.061	3.229 ± 0.032	3.185 ± 0.031
DNDRFNVVGKLISIISS [YML103C/NUP188]	1.3 ± 0.064	1.24 ± 0.073	1.21 ± 0.081	1.2 ± 0.047
VIEQCYLKFIPLKRAIW [SRB8]	1.5 ± 0.053	1.69 ± 0.059	1.4 ± 0.099	1.32 ± 0.042
GIRVQDSVILASSKAVT [PRE1]	2.54 ± 0.065	2.73 ± 0.076	2.46 ± 0.068	2.38 ± 0.05
FTYNKFLLNQNKQLSQS [YIL149C/MLP2]	2.68 ± 0.069	2.96 ± 0.06	3.15 ± 0.06	3.17 ± 0.062
DDVKNILNAKYTKETYQ [RPN6]	3.26 ± 0.076	2.99 ± 0.066	3.08 ± 0.052	3.12 ± 0.064
LTDHRKETWLHELSSSH [SRB8]		3.58 ± 0.19		2.76 ± 0.14
EKLDVSRSSVCVKAIEA [YCG1]	2.54 ± 0.065	2.16 ± 0.058	2.08 ± 0.079	2.11 ± 0.058
RVISEYYSRITLLRLNE [RPN5]	2.65 ± 0.076	1.67 ± 0.05	1.68 ± 0.084	1.87 ± 0.068
VKKLEIQQHARYDCSFC [RPL43A]	2.73 ± 0.11	2.87 ± 0.092	2.96 ± 0.068	3.3 ± 0.092
ITQDGKFAYKIDKITDG [YMR129W/POM152]	2.9 ± 0.087	3.03 ± 0.073	2.81 ± 0.063	2.85 ± 0.051
YGMSITETFEKPQRTNT [RPB2]	3.03 ± 0.14	3.35 ± 0.17	3.04 ± 0.12	3.12 ± 0.11
TTTMLQLFSTFDRLNGN [SSN2]	3.08 ± 0.076	3.12 ± 0.073	3.28 ± 0.055	3.02 ± 0.041
YQDIEGGFEDVEEYTWS [RPB2]	3.44 ± 0.14	3.29 ± 0.11	3.49 ± 0.066	3.44 ± 0.099
QAPTTGFSFGSQLGGNK [YJL041W/NSP1]	3.02 ± 0.051	3.01 ± 0.054	3.37 ± 0.045	3.17 ± 0.036
VENSVLIEKVDDTAANN [YIL149C/MLP2]	2.83 ± 0.15	2.82 ± 0.15	2.68 ± 0.14	2.79 ± 0.088
AGNKVGQSEASLLNLLN [RPP0]	3.03 ± 0.12	2.25 ± 0.095	2.67 ± 0.1	2.95 ± 0.12
LQPPKTSSRGRDHKSYS [SMC4]	2.9 ± 0.056	3.21 ± 0.061	3 ± 0.071	2.86 ± 0.049
SVDESARIKDAFITQLE [YJL039C/NUP192]	3.03 ± 0.12	2.61 ± 0.17	2.9 ± 0.16	2.87 ± 0.11
